The record followed here is publication PMC5025603.

Substrate in the data set: CC(O)C(=O)O
The data set is described as follows: cells, lysate or membranes. Conditions: labelled compound, KH2PO4 pH 5.0, room temperature, 10 s uptake, strain printed GLS in table, GS in text and methods, host background uptake not subtracted.

B1: PAS (putative lactate transporter of P. pastoris) (Komagataella phaffii GS115) (protein)
chain: MSHSIHSAAHKSVMTDIEKQHDRIHPHDHPVTPLEKPDLSAKSIKHYFATRLSTLVPKAEDFKDKRYIFNPFMVLRELTPKNWNFFMCGFAAWTWDAVDFFSVSLNVTNIAKDLNVTTKDVTWGLTLVLMLRSVGAISFGLWADRKGRKWPFIFNMILLIVLQIGLGFVNTYKQFLGVRAVFGIAMGAVFGNASSLALDDCPPRAKGIVSGIFQQGYAFGYLLVVVFQRAITDNASKSWRALFWFSAGPPVLIILWRLVLPETDAFIAQQNLRMETSDGQTASQQFVKQGKDALRVYWLMLIYMIIMMAAFNFSSHSSQDLYPTLLTVQYEFGKDRSTVTNVVANLGAIVGGIFWGHMSNFIGRRLAVLLCCIVGGAFIYPWAFINGSGINAGAFFLQFAVQGGWGVCPVHLAEMSPPHFRAFVTGTTYQLGNLASSGSSTILADIGERFPIYDENGVRKEGVYDYAKVMAIFMGAVFAFLFIVMLLGPERRGASNLDDLQDYIDDWEQKDLDNKKGIETEFIEDVQLMEAVSNEDLSEKGNEKVEAFEGNK
As usually defined, the Km is the concentration of substrate that gives half-maximal velocity. For orientation: Vmax means the rate approached at saturating substrate. For B1, the Km is on record as 157.40 ± 25.46 µM and the maximal velocity (Vmax) came to 452 µmol/min/mg.
